# Assay results from publication PMC2688778 (Structure (London, England : 1993), 2009).
# T1: RecE564 Y608A (Escherichia coli K12, UniProt P15032 564-866, Y608A)
# T1 sequence: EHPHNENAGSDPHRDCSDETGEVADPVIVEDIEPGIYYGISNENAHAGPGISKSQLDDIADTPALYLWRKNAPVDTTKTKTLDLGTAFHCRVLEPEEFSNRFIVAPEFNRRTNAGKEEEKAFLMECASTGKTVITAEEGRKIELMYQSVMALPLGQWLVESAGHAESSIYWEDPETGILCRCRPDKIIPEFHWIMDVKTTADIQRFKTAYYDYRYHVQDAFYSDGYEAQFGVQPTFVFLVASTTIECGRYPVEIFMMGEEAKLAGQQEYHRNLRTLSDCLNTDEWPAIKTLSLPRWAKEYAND
# B1: F25 (dsDNA)
# DNA 1: TAGAGCTTAATTGCTGAATCTGGTG
# DNA 2: CACCAGATTCAGCAATTAAGCTCTA
# Biological target: T1, RecE564 Y608A
# Experiment: fluorescence anisotropy
binder,measurement,value
B1,Kd,160 ± 10 nM
